The target of this data set is Sam68 N-terminal region (human, UniProt Q07666 1-96). As to the kind of experiment: single-molecule nanoaperture optical tweezers.
Sequence of Sam68 N-terminal region (Q07666 1-96): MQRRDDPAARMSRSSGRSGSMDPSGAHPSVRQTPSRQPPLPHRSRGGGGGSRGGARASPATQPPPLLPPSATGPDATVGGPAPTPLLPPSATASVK

B1: G8.5 RNA (ssRNA)
RNA: GGGUGACACACUAGCUAUAGCAUUAAAAGACCGAGCAAGU
For the molecule B1, the Kd (as a rule, the equilibrium constant for the complex coming apart) is approximately 8 µM.

(Values after doi:10.1101/2025.05.26.656162.)
